Measurements: patent publication US20120207760A1 (THERACLONE SCIENCES, published 2012)

Key:
[1] = target: T1, hemagglutinin (HA) of influenza A/Japan/305/57 H2N2 (Influenza A virus A/Japan/305/1957 …, UniProt P03451 16-562); assay: ELISA, inactivated whole virions coated; transfection supernatant set 4
[2] = target: T2, hemagglutinin (HA) of influenza A/Solomon Islands/3/06 H1N1 (Influenza A virus A/Solomon …); assay: as above
[3] = target: T1, hemagglutinin (HA) of influenza …; assay: ELISA, inactivated whole virions coated; transfection supernatant set 1
[4] = target: T2, hemagglutinin (HA) of influenza …; assay: as above
[5] = target: T1, hemagglutinin (HA) of influenza …; assay: ELISA, inactivated whole virions coated; transfection supernatant set 3
[6] = target: T2, hemagglutinin (HA) of influenza …; assay: as above
[7] = target: T2, hemagglutinin (HA) of influenza …; assay: cell-based or functional assay
[8] = target: T1, hemagglutinin (HA) of influenza …; assay: ELISA, inactivated whole virions coated; transfection supernatant set 5
[9] = target: T2, hemagglutinin (HA) of influenza …; assay: as above
[10] = target: T1, hemagglutinin (HA) of influenza …; assay: ELISA, inactivated whole virions coated; transfection supernatant set 2
[11] = target: T2, hemagglutinin (HA) of influenza …; assay: as above
[12] = target: recombinant homotrimeric HA, A/California/4/09 H1N1 (Influenza A virus A/California/4/09 …); assay: trimeric HA microarray, transfection set 5
[13] = target: recombinant homotrimeric HA, A/Japan/305/57 H2N2 (Influenza A virus A/Japan/305/57 (H2N2)); assay: trimeric HA microarray, transfection set 5
[14] = target: recombinant homotrimeric HA, A/Indonesia/5/05 H5N1 (Influenza A virus A/Indonesia/5/05 …); assay: trimeric HA microarray, transfection set 5
[15] = target: recombinant homotrimeric HA, A/swine/Ontario/01911-2/99 H4N6 (Influenza A virus …); assay: trimeric HA microarray, transfection set 5
[16] = target: recombinant homotrimeric HA, A/Vietnam/1203/04 H5N1 (Influenza A virus A/Vietnam/1203/04 …); assay: trimeric HA microarray, transfection set 5
[17] = target: recombinant homotrimeric HA, A/Solomon Islands/3/06 H1N1 (Influenza A virus A/Solomon …); assay: trimeric HA microarray, transfection set 5
[18] = target: recombinant homotrimeric HA, A/South Carolina/1/18 H1N1 (Influenza A virus A/South Carolina/1/18 …); assay: trimeric HA microarray, transfection set 5
[19] = target: recombinant homotrimeric HA, A/Wisconsin/67/05 H3N2 (Influenza A virus A/Wisconsin/67/05 …); assay: trimeric HA microarray, transfection set 5
[20] = target: T3, M2 protein of A/Puerto Rico/8/34 (H1N1), on virus particles, infected MDCK cells or transfected cells (influenza A virus A/Puerto Rico/8/34 …, UniProt P06821 1-97); assay: ELISA on purified A/Puerto Rico/8/34 virus (FIG. 14a)
T3 construct: whole, on cells

Binder | OD450 [1] [OD450] | OD450 [2] [OD450] | OD450 [3] [OD450] | OD450 [4] [OD450] | OD450 [5] [OD450] | OD450 [6] [OD450] | OD450 [8] [OD450] | OD450 [9] [OD450] | OD450 [10] [OD450] | OD450 [11] [OD450] | Trimeric HA Binding RLU [12] [RLU] | Trimeric HA Binding RLU [13] [RLU] | Trimeric HA Binding RLU [14] [RLU] | Trimeric HA Binding RLU [15] [RLU] | Trimeric HA Binding RLU [16] [RLU] | Trimeric HA Binding RLU [17] [RLU] | Trimeric HA Binding RLU [18] [RLU] | Trimeric HA Binding RLU [19] [RLU] | EC50 [20] [µg/mL] | further results
TCN-523 (5248_A17) (antibody, V domains shown) VH: QVQLVQSGAEVKKPGSSVKVSCKASGGSFSNYAFSWVRQAPGQGLEWMGGTIPLLGTTNYAQKFQGRVTISADQFTSTAYMELGSLRSEDTAVYYCTRRKMTTAFDSWGQGTLVTVSS VL: QPVLTQPPSASASLGASVTLTCTLSSAYSNYKVDWYQQRPGKGPRFVMRVGTGGIVGSKGDGIPDRFSVLGSGLNRYLTIKNIQEEDESDYHCGADHGSGSNFVSPYVFGGGTKLTVL | 1.73 | 3.43 | 1.69 | 3.59 | 3.47 | 3.59 | 2.56 | 3.62 | 1.39 | 3.67 | – | – | – | – | – | – | – | – | – | % Neutralization [7]: 69%
TCN-556 (5089_K12) (antibody, V domains shown) VH: QVQLVQSGAEVKKPGASVKVSCKASGYTFIGYDMHWVRQAPGQGLEWMGWINAKRGGTNYAQKFQGRVTMTRDTSISTAYMELNSLRSDDTAVYYCARGVGSRTTIFGVLNPEFDYWGQGTLVTVSS VL: QSALTQPPSASGSPGQSVTISCTGSSSDVGGYDYVSWYQQHPGKAPKLLIYEVTKRPSGVPDRFSGSKSGNTASLTVSGLQAEDEADYYCSSYAGNYNHVFGPGTKVTVL | – | – | – | – | – | – | – | – | – | – | 20900 | 22800 | 15200 | 19300 | 17400 | 23400 | 32700 | 44700 | – | –
TCN-560 (5084_P10) (antibody, V domains shown) VH: EVQLVESGGGLVQPGGSLRLSCAASGFIFRNYWMSWVRQAPGKGLEWVANIKQDGREKYYVDSLRGRVNISRDNAENSLYLHMNSLRVEDTAVYFCARARMVVVTGDGFDVWGHGTMVTVSS VL: DIQMTQSPSSLSASVGDRVTITCRASQNIKRYFNWYQQKPGKAPKLLIYAASNLENGVPSRFSGSGSGTDFTLTISSLQPEDFATYYCQQSFSKSWTFGQGTNVDIK | – | – | – | – | – | – | – | – | – | – | 31100 | 25900 | 17000 | 16800 | 19500 | 22400 | 30500 | 55400 | – | –
TCN-031 (23K12) (antibody, V domains shown) VH: EVQLVESGGGLVQPGGSLRISCAASGFTVSSNYMSWVRQAPGKGLEWVSVIYSGGSTYYADSVKGRFSFSRDNSKNTVFLQMNSLRAEDTAVYYCARCLSRMRGYGLDVWGQGTTVTVSS VL: DIQMTQSPSSLSASVGDRVTITCRTSQSISSYLNWYQQKPGKAPKLLIYAASSLQSGVPSRFSGSGSGTDFTLTISGLQPEDFATYYCQQSYSMPAFGQGTKLEIK | – | – | – | – | – | – | – | – | – | – | – | – | – | – | – | – | – | – | ~0.1 | –
TCN-032 (8I10) (antibody, V domains shown) VH: QVQLQESGPGLVKPSETLSLTCTVSGSSISNYYWSWIRQSPGKGLEWIGFIYYGGNTKYNPSLKSRVTISQDTSKSQVSLTMSSVTAAESAVYFCARASCSGGYCILDYWGQGTLVTVSS VL: DIQMTQSPSSLSASVGDRVTITCRASQNIYKYLNWYQQRPGKAPKGLISAASGLQSGVPSRFSGSGSGTDFTLTITSLQPEDFATYYCQQSYSPPLTFGGGTRVEIK | – | – | – | – | – | – | – | – | – | – | – | – | – | – | – | – | – | – | ~0.1 | –
TCN-504 (3251_K17) (antibody, V domains shown) VH: QVQLQESGPGLVKPSETLSLTCAVSGVSISNIDFYWGWIRQPPGKGLEWIGNIYYTGITFYNPSLSSRVAISIDTSKNQFSLTLTSVTAADTAMYYCARHYGDSEAINDAFDIWGQGTMLTVSS VL: EIVMTQSPATLSVSPGERATLSCRASQSVGNSLAWYQQRPGQAPRLLIYGASTRATGIPPRFSGSGSGTEFTLTISSLQTEDFAVYYCQQYINWRPLSFGGGTKVEIK | 3.51 | 3.52 | 3.65 | 3.65 | 3.64 | 3.63 | 3.59 | 3.6 | 3.62 | 3.65 | – | – | – | – | – | – | – | – | – | –
